Test results taken from the nanobody polyreactivity screen of Harvey et al. (2022).

Assay: yeast display, Sf9 membrane polyspecificity reagent, FACS + sequencing; frameworks hold sequencing errors
In short: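 Sorting gates, low and high (top ~1%), were placed on anti-HA fluorescence to track expression and on streptavidin fluorescence to track reagent binding. A clone's polyreactivity label is taken from the gate it came out of. The reagent was 10% biotinylated, detergent-solubilized Sf9 membrane, applied for 1 hour at 4 °C to galactose-induced yeast display cells.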

| Sequence | polyreactivity (PSR sort gate) |
| --- | --- |
| QVQLVESGGGLVQAGGSLRLSCAASGYTFYANAMGWYRQAPGKEREFVASITWSGGSTYYADSVKGRFTISRDNAKNTVYLQMNSLKTEDTAVYYCAAESWFKYDYWGQGTQVTVSS | low polyreactivity |
| QVQLVESGGGLVQAGGSLRLSCAASGYTFYAYAMGWYRQAPGKERELVAAISGSGGNTRYADSVKGRFTISRDNAKNTVYLQMNSLKPEDTAVYYCAAVGWAYNSRYDYWGQGTQVTVSS | high polyreactivity |
| QVQLVESGGGLVQAGGSLRLSCAASGYTFYGYAMGWYRQAPGKERELVAAISWSGTNTNYADSVKGRFTISRDNAKNTVYLQMNSLKPEDTAVYYCAAGYYYRGFHTEDYWGQGTQVTVSS | high polyreactivity |
| QVQLVESGGGLVQAGGSLRLSCAASGYTFYPYAMGWYRQAPGKERELVAAITTSGGSTYYADSVKGRFTISRDNAKNTVYLQMNSLKPEDTAVYYCARDSLQVFYPYASDDYWGQGTQVTVSS | low polyreactivity |
| QVQLVESGGGLVQAGGSLRLSCAASGYTFYRYAMGWYRQAPGKERELVAGIDRSGTRTYYADSVKGRFTISRDNAKNTVYLQMNSLKPEDTAVYYCNAVAYYVSKYDYWGQGTQVTVSS | high polyreactivity |
| QVQLVESGGGLVQAGGSLRLSCAASGYTFYRYAMGWYRQAPGKERELVAGISRDGGSTYYADSVKGRFTISRDNAKNTVYLQMNSLKPEDTAVYYCAADKTRYRLGRDYWGQGTQVTVSS | low polyreactivity |
| QVQLVESGGGLVQAGGSLRLSCAASGYTFYRYTMGWYRQAPGKEREVVAAINSGGSTNYADSLKGRFTISRDNAKNTVYLQMNSLKPEDTAVYYCARRYQTWPRWYDYWGQGTQVTVSS | high polyreactivity |
| QVQLVESGGGLVQAGGSLRLSCAASGYTFYVYTMGWYRQAPGKERELVAAISGSGTSTYYADSVKGRFTISRDNAKNTVYLQMNSLKPEDTAVYYCAAEDYSSDVYSYDYWGQGTQVTVSS | low polyreactivity |
| QVQLVESGGGLVQAGGSLRLSCAASGYTFYWNVMGWYRQAPGKERELVAVIDWSGGSTHYADSVKGRFTISRDNAKNTVYLQMNSLKPEDTAVYYCAAVDIRLEWDYWFQPTYDYWGQGTQVTVSS | low polyreactivity |
| QVQLVESGGGLVQAGGSLRLSCAASGYTFYYNAMGWYIQAPGKERELVARISRSGGSTYADSVKGRFTISRDNAKNTVYLQMNSLKPEDTAVYYCNADAYGTPEFTSYAVRYDYWGQGTQVTVSS | low polyreactivity |
| QVQLVESGGGLVQAGGSLRLSCAASGYTIIQYAMGWYRQAPGKERELVAGMTWSGGSKYADSVKGRFTISRDNAKNTVYLQMNSLNPEDTAVYYCAAVPYSYTYVYLRHYDYWGQGTQVSVSS | low polyreactivity |
| QVQLVESGGGLVQAGGSLRLSCAASGYTIRYYAMGSYRQAPGKERELVADISYSGGRTYYADSVKGRITISRDNAKNTVDLLMNSLKPEDSAVYYSNARGGRRAYNYGYWGQGTQVTVSS | high polyreactivity |
| QVQLVESGGGLVQAGGSLRLSCAASGYTIWHYAMGWYRQAPGKEREFVATISSGGSTYYADSVKGRFTISRDNAKNTVYLQMNSLKPEDTAVYYCAVDIWGGEGYDSWGQGTQVTVSS | low polyreactivity |
| QVQLVESGGGLVQAGGSLRLSCAASGYTIYVNAMGRYRQAPAKQRQLVASNRRDSTYYADSVKGRFTISRDNAKNTVYLQMNSLKPEDSAVYYCAVDWYPWLYDGRTYEYWGQGTQVTVSS | low polyreactivity |
| QVQLVESGGGLVQAGGSLRLSCAASGYTLNIYGMGWYRQATGKERELVAAISRGGSTNYADSVKGRFTISRDNAKNTVYLQMNSLKPEDTAVYYCAKVYNYRSVRYYYWGQGTQVTVSS | high polyreactivity |
| QVQLVESGGGLVQAGGSLRLSCAASGYTLRIYAMGWYRQAPGKERELVAAISRSGGRTFYADSVKGRFTISRDNAKNTVYLQMISLTPEDTAVFYCAAVSAYYYRRTYEYWGQGTQVTVSS | high polyreactivity |
| QVQLVESGGGLVQAGGSLRLSCAASGYTLYLNAMGWYRQAPGKERELFARISGGGSTNYADSVKGRFTISRDNAKNTVYLQMNSLKPEDTAVYYCAATIFAYGYRSFKLDYWGQGTQVTVSS | low polyreactivity |
| QVQLVESGGGLVQAGGSLRLSCAASISSSNAMGWYRQAPGKERELVAAIRWSGTSTYYADSVKGRFTISRDNANNTVYLQMNSLKPEETAVYYCAARYVRVGYDYWGQGTQVTVSS | high polyreactivity |
| QVQLVESGGGLVQAGGSLRLSCAASMGWYRQAPGKERELVAITRTTRTYYADSVKGRFTISRDNAKNTVYLQMNSLKPEDTAVYYCAAPNGPSPYWYNYWGQGTQVTVSS | low polyreactivity |
| QVQLVESGGGLVQAGGSLRLSCAASRFIFGAYTMGWYRQAPGKERELVAAISWSGDSTYYADSVKGRFTISRDNAKNTVYLQMNSLKPEDTAVYYCAAVWYWSGFDYWGQGTQVTVSS | high polyreactivity |
| QVQLVESGGGLVQAGGSLRLSCAASRFIFSFYVMGWYRQAPAKETELVAAISTSGASTYYADSVKGRFTITRDNAKKTVYLQMNSLKPEDTAVYYCNVGYRYGGYNYWGQGTQVTVSW | high polyreactivity |

| Sequence | polyreactivity (PSR sort gate) |
| --- | --- |
| QVQLVESGGGLVQAGGSLRLSCAASRFIFSSYVMGRYRQAPGKERELVAASRSGGSTNYADSVKGRFTISRDNAKNTVYLQMNSLKPEDTAVYYCAARGRLGQGYYYWGQGTLVTVSS | low polyreactivity |
| QVQLVESGGGLVQAGGSLRLSCAASRFIFWPYAMGWYRPAPGKERELVAAITTGGSTNYADSVKGRFTISRDNAKNTVYFQMNSLKPEDTAVYYCAKGYYFGYYEFVYWGQGTQVTVSS | high polyreactivity |
| QVQLVESGGGLVQAGGSLRLSCAASRFTFSGYAMGWYRQAPGKERELVATISSSGSTYADSVKGRFTISRDNAKNTVYLQMNSLKPEDTAVYYCAKRVPFFDYWGQGTQVTVSS | low polyreactivity |
| QVQLVESGGGLVQAGGSLRLSCAASRFTFVHYAMGWYRQAPGKERELVAAISRSGGSTYCADSVKGRFTISRDNAKNTVYLQMNSLKPEDTAVYYCAASRGSYEVVYWGQGTQVTVSS | high polyreactivity |
| QVQLVESGGGLVQAGGSLRLSCAASRFYTMGWYIPAPGKERELVAAISWSGGDTYYADSVKGRYTISRDNAKNTVYLQMNSLKQEDTAVYYCPKKTIGSYVHEPYYYWGQGNQVTVSS | low polyreactivity |
| QVQLVESGGGLVQAGGSLRLSCAASRIIFWFYAMGWYRQAPGKERELVAAISGDGDSTYYADSVKGRFTISRDNAKNTVYLQMNSLIPEDTAVYYCAAEWDPVFATDEDDYWGQGTQVTVSS | low polyreactivity |
| QVQLVESGGGLVQAGGSLRLSCAASRRIFDVNSMGWYRQAPGKERELVAAISSGGNTKYADSVKGRFTISRDNAKNSVYLQMNSLKPEDTAVYYCIADGKAAGDYDYWGQGTQVTVSS | low polyreactivity |
| QVQLVESGGGLVQAGGSLRLSCAASRRILRVYAMGWYRQAPGKERELVASISSGGSTNYADSVKGRFTISRDNAKNTVYFQMKSLKPEDTAVYYCNRRWVHTYDYWGQGTQVTVSS | high polyreactivity |
| QVQLVESGGGLVQAGGSLRLSCAASRSIFRGYAMGWYRQAPVKETELVAAITQRAGSTYYADSVKGRFTISRDNAKNTVYLQMISLKPEDTAVYYCAADFYYAYYWGQGTQVTVSS | low polyreactivity |
| QVQLVESGGGLVQAGGSLRLSCAASRSTSPAYAMGWYRQAPGKERELVAVITGSGASTYYADSVKGRFTISRDNAKNTVYLQMNSLKPEDTAVYYCAADVGFGVVFYDYWGQGTQVTVSS | low polyreactivity |
| QVQLVESGGGLVQAGGSLRLSCAASRSTSYDYAMGWYRQAPGKERELVAAISGSSSTTYYADSVKGRFTISRDNAKNTVSLQMNSLKPEDTAVYYCNAVTTSGSGYGYWGQGTQVTVSS | low polyreactivity |
| QVQLVESGGGLVQAGGSLRLSCAASRYTFTLYAMGWYRKAPGKEWELLAAISRSGGSTYYADSVKGRFTISRDNAKITVYLQMNSLKPEDTAVYYCAADKYFAWGYPSGLWYDYWGQGTQVTVSS | high polyreactivity |
| QVQLVESGGGLVQAGGSLRLSCAASVFTFTHYAMGWYRQSAGKERELVAAISTSGVSTYYSDSVKGRFTISRDNAKNTVYLQMNSLKPEDTAVYYCAARRDGWFQWGYYYWGQGTQVTVSS | low polyreactivity |
| QVQLVESGGGLVQAGGSLRLSCAASVFTFTRYVMGWYRQAPVKERELVAAISGSGGSTNYADSVKGRFTISRDNAKNTVYLQMNSLKPEDTVVYYCAARFVGSRYRFDYWGQRTQVTVSS | high polyreactivity |
| QVQLVESGGGLVQAGGSLRLSCAASVFTIPRYAMGWYRQAPGKETELFAAITSGGSTYYADSVKGRFTISRDNAKNTVYLQMNSLKPEDTAVYYWASRAVWSSWGSRYDSWGHGTQVTVSS | high polyreactivity |
| QVQLVESGGGLVQAGGSLRLSCAASVIIFYPYAMGWSRQAPGKEMELVAAITARSANTYYADSVKGRFTISRDNAKNTVYLQMNSLKPEDTAVYYCAAAIYSYRTPYYYWGQGTQVTVSS | high polyreactivity |
| QVQLVESGGGLVQAGGSLRLSCAASVITSPYAMGWYRQAPGKERELVAAISWSGSSTYYADSVKGRFTISRDNAKNTVYLQINSLKPEDTAVYYCATLVSDSRSRRFGYEYWGQGSQVTVSS | high polyreactivity |
| QVQLVESGGGLVQAGGSLRLSCAASVLTFYEYAMGWYRQAPGKERELVASISGRAASTDYADSVKGRFTISRDNAKNTVYLQMNSLKPEDTAVYYCAVGVVGDIDTDGYWGQGTQVTVSS | low polyreactivity |
| QVQLVESGGGLVQAGGSLRLSCAASVNIFESYGMGWYRQAPGKERELVATINTSSGSTYYADSVKGRFTISRDNAKNTVYLQMNSLKPEDTAVYYCSAEWYPYPWGYGYSGQGTQVTVSS | low polyreactivity |
| QVQLVESGGGLVQAGGSLRLSCAASVRIFAKYAMGWYRQAPGKERELVAAIRWRGGNTYYADSVKGRFTISRDNAKNTVYLQMNSLKPEDTAVYYCAAGTWLGRGYIGQVESWGQGTQVTVSS | high polyreactivity |
